Laboratory results published in US20210207126A1.

What was measured:
[1] = molecular target: CD137 antigen used to stain yeast (human) (UniProt Q07011); test: flow cytometry of yeast displaying the scFv, CD137 binding against scFv display; file 01-display-C2.fcs; antigen concentration not given
[2] = molecular target: CD137 antigen used to stain yeast (human) (UniProt Q07011); test: flow cytometry of yeast displaying the scFv, CD137 binding against scFv display; file 01-5112.2-B5.fcs; kind of statistic and antigen concentration not given; the boxed gate is set on scFv display
[3] = molecular target: CD137 antigen used to stain yeast (human) (UniProt Q07011); test: flow cytometry of yeast displaying the scFv, quadrant plot; the other quadrants read 0.39% (upper left), 34.3% (lower left), 3.83% (lower right)
[4] = molecular target: CD137 antigen used to stain yeast (human) (UniProt Q07011); test: flow cytometry of yeast displaying the scFv clone after TEV protease treatment, CD137 binding against scFv display; file 01-2317-B8.fcs; antigen concentration not given
[5] = molecular target: CD137 antigen used to stain yeast (human) (UniProt Q07011); test: flow cytometry of yeast displaying the clone after TEV protease treatment, CD137 binding against the axis printed as scFv display; file 01-2328-B11.fcs; antigen concentration not given

CD137 antigen used to stain yeast (human), sequence (Q07011 24-186 limits assumed): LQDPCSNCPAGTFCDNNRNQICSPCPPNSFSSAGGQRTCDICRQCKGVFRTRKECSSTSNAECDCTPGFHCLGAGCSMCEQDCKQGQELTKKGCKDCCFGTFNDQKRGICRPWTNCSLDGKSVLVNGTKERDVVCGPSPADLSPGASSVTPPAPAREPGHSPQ

B1: scFv of TY21242 displayed on yeast (scFv, part only; not given: scFv linker, Aga2, tag, V domains shown, not shown: another chain or arm of the molecule; large carriers; small tags and cut ends)
VL: DIQLTQSPSSLSASVGDRVTITCRASQSIGSYLAWYQQKPGKAPKLLIYDASNLETGVPSRFSGSGSGTDFTLTISSLQPEDFATYYCQQGYYLWTFGQGTKVEIK
VH: EVQLVESGGGLVQPGGSLRLSCAASGFSLSTGGVGVGWIRQAPGKGLEWLALIDWADDKYYSPSLKSRLTISRDNSKNTLYLQLNSLRAEDTAVYYCARGGSDTVIGDWFAYWGQGTLVTVSS
Y (signal on the CD137 binding axis, FL2-A :: PE-A) [1]: 27800 | Y (signal on the CD137 binding axis, FL2-A :: PE-A) [2]: 19200 | percent of cells in the upper right quadrant (scFv display positive and CD137 binding positive) [3]: 61.4%

B2: CD137 activatable antibody clone B13428 (scFv on yeast, masking peptide cleaved by TEV protease) (scFv, part only; not given: cleavage stub, scFv linker, Aga2, V domains shown, not shown: another chain or arm of the molecule; large carriers; small tags and cut ends)
VL: DIQLTQSPSSLSASVGDRVTITCRASQSIGSYLAWYQQKPGKAPKLLIYDASNLETGVPSRFSGSGSGTDFTLTISSLQPEDFATYYCQQGYYLWTFGQGTKVEIK
VH: EVQLVESGGGLVQPGGSLRLSCAASGFSLSTGGVGVGWIRQAPGKGLEWLALIDWADDKYYSPSLKSRLTISRDNSKNTLYLQLNSLRAEDTAVYYCARGGSDTVIGDWFAYWGQGTLVTVSS
Y (signal on the CD137 binding axis, FL2-A :: PE-A) [4]: 10100

B3: CD137 activatable antibody clone B13439 (scFv on yeast, masking peptide cleaved by TEV protease) (scFv, part only; not given: cleavage stub, scFv linker, Aga2, tag, V domains shown, not shown: another chain or arm of the molecule; large carriers; small tags and cut ends)
VL: DIQLTQSPSSLSASVGDRVTITCRASQSIGSYLAWYQQKPGKAPKLLIYDASNLETGVPSRFSGSGSGTDFTLTISSLQPEDFATYYCQQGYYLWTFGQGTKVEIK
VH: EVQLVESGGGLVQPGGSLRLSCAASGFSLSTGGVGVGWIRQAPGKGLEWLALIDWADDKYYSPSLKSRLTISRDNSKNTLYLQLNSLRAEDTAVYYCARGGSDTVIGDWFAYWGQGTLVTVSS
Y (signal on the CD137 binding axis, FL2-A :: PE-A) [5]: 7270
